In PMC11696373 (Nature Communications, 2025):

Molecular target: the molecule itself
Test: cryo-EM structure

B1: human XPR1 (natural protein)
chain: MKFAEHLSAHITPEWRKQYIQYEAFKDMLYSAQDQAPSVEVTDEDTVKRYFAKFEEKFFQTCEKELAKINTFYSEKLAEAQRRFATLQNELQSSLDAQKESTGVTTLRQRRKPVFHLSHEERVQHRNIKDLKLAFSEFYLSLILLQNYQNLNFTGFRKILKKHDKILETSRGADWRVAHVEVAPFYTCKKINQLISETEAVVTNELEDGDRQKAMKRLRVPPLGAAQPAPAWTTFRVGLFCGIFIVLNITLVLAAVFKLETDRSIWPLIRIYRGGFLLIEFLFLLGINTYGWRQAGVNHVLIFELNPRSNLSHQHLFEIAGFLGILWCLSLLACFFAPISVIPTYVYPLALYGFMVFFLINPTKTFYYKSRFWLLKLLFRVFTAPFHKVGFADFWLADQLNSLSVILMDLEYMICFYSLELKWDESKGLLPNNSEESGICHKYTYGVRAIVQCIPAWLRFIQCLRRYRDTKRAFPHLVNAGKYSTTFFMVTFAALYSTHKERGHSDTMVFFYLWIVFYIISSCYTLIWDLKMDWGLFDKNAGENTFLREEIVYPQKAYYYCAIIEDVILRFAWTIQISITSTTLLPHSGDIIATVFAPLEVFRRFVWNFFRLENEHLNNCGEFRAVRDISVAPLNADDQTLLEQMMDQDDGVRNRQKNRSWKYNQSISLRRPRLASQSKARDTKVLIEDTDDEANT
- stoichiometry N: 2
